Data from patent US20110154541A1.

Molecular target: horse-heart mitochondrial cytochrome c (horse) (UniProt P00004)
Assay: cell-based or functional assay

Sequence of UniProt P00004 (P00004 2-105 limits assumed): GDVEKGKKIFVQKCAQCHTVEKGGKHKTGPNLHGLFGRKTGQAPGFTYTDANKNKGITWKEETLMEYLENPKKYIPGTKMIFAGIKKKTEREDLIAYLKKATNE

rate of cc reduction (light-dependent, increase of the cc alpha peak at 550 nm), with DCMU (µmol/(mg chl·h)): 20
rate of cc reduction (light-dependent, increase of the cc alpha peak at 550 nm), without DCMU (µmol/(mg chl·h)): 12
Substance: Photosystem II with variant D1 protein D1-K238E, in thylakoid membranes isolated from the Synechocystis sp. PCC 6803 Glu mutant strain (from UniProt P16033 1-344)
